Laboratory results as given in IntAct's records for PubMed 24997597.

B1: Centrosomal protein of 152 kDa (Homo sapiens), O94986-3 (parent)
chain: MSLDFGSVALPVQNEDEEYDEEDYEREKELQQLLTDLPHDMLDDDLSSPELQYSDCSEDGTDGQPHHPEQLEMSWNEQMLPKSQSVNGYNEIQSLYAGEKCGNVWEENRSKTEDRHPVYHPEEGGDEGGSGYSPPSKCEQTDLYHLPENFRPYTNGQKQEFNNQATNVIKFSDPQWNHFQGPSCQGLEPYNKVTYKPYQSSAQNNGSPAQEITGSDTFEGLQQQFLGANENSAENMQIIQLQVLNKAKERQLENLIEKLNESERQIRYLNHQLVIIKDEKDGLTLSLRESQKLFQNGKEREIQLEAQIKALETQIQALKVNEEQMIKKSRTTEMALESLKQQLVDLHHSESLQRAREQHESIVMGLTKKYEEQVLSLQKNLDATVTALKEQEDICSRLKDHVKQLERNQEAIKLEKTEIINKLTRSLEESQKQCAHLLQSGSVQEVAQLQFQLQQAQKAHAMSANMNKALQEELTELKDEISLYESAAKLGIHPSDSEGELNIELTESYVDLGIKKVNWKKSKVTSIVQEEDPNEELSKDEFILKLKAEVQRLLGSNSMKRHLVSQLQNDLKDCHKKIEDLHQVKKDEKSIEVETKTDTSEKPKNQLWPESSTSDVVRDDILLLKNEIQVLQQQNQELKETEGKLRNTNQDLCNQMRQMVQDFDHDKQEAVDRCERTYQQHHEAMKTQIRESLLAKHALEKQQLFEAYERTHLQLRSELDKLNKEVTAVQECYLEVCREKDNLELTLRKTTEKEQQTQEKIKEKLIQQLEKEWQSKLDQTIKAMKKKTLDCGSQTDQVTTSDVISKKEMAIMIEEQKCTIQQNLEQEKDIAIKGAMKKLEIELELKHCENITKQVEIAVQNAHQRWLGELPELAEYQALVKAEQKKWEEQHEVSVNKRISFAVSEAKEKWKSELENMRKNILPGKELEEKIHSLQKELELKNEEVPVVIRAELAKARSEWNKEKQEEIHRIQEQNEQDYRQFLDDHRNKINEVLAAAKEDFMKQKTELLLQKETELQTCLDQSRREWTMQEAKRIQLEIYQYEEDILTVLGVLLSDTQKEHISDSEDKQLLEIMSTCSSKWMSVQYFEKLKGCIQKAFQDTLPLLVENADPEWKKRNMAELSKDSASQGTGQGDPGPAAGHHAQPLALQATEAEAEENNKVVEELIEENNDMKNKLEELQTLCKTPPRSLSAGAIENACLPCSGGALEELRGQYIKAVKKIKCDMLRYIQESKERAAEMVKAEVLRERQETARKMRKYYLICLQQILQDDGKEGAEKKIMNAASKLATMAKLLETPISSKSQSKTTQSALPLTSEMLIAVKKSKRNDVNQKIPCCIESKSNSVNTITRTLCEQAPKRRAACNLQRLLENSEHQSIKHVGSKETHLEFQFGDGSCKHLNSLPRNVSPEFVPCEGEGGFGLHKKKDLLSDNGSESLPHSAAYPFLGTLGNKPSPRCTPGPSESGCMHITFRDSNERLGLKVYKCNPLMESENAASEKSQGLDVQEPPVKDGGDLSDCLGWPSSSATLSFDSREASFVHGRPQGTLEIPSESVKSKQFSPSGYLSDTEESNMICQTMKCQRYQTPYLSEETTYLEPGKISVNCGHPSRHKADRLKSDFKKLSSTLPSSVCQQPSRKLIVPLSSQQDSGFDSPFVNLD
partner: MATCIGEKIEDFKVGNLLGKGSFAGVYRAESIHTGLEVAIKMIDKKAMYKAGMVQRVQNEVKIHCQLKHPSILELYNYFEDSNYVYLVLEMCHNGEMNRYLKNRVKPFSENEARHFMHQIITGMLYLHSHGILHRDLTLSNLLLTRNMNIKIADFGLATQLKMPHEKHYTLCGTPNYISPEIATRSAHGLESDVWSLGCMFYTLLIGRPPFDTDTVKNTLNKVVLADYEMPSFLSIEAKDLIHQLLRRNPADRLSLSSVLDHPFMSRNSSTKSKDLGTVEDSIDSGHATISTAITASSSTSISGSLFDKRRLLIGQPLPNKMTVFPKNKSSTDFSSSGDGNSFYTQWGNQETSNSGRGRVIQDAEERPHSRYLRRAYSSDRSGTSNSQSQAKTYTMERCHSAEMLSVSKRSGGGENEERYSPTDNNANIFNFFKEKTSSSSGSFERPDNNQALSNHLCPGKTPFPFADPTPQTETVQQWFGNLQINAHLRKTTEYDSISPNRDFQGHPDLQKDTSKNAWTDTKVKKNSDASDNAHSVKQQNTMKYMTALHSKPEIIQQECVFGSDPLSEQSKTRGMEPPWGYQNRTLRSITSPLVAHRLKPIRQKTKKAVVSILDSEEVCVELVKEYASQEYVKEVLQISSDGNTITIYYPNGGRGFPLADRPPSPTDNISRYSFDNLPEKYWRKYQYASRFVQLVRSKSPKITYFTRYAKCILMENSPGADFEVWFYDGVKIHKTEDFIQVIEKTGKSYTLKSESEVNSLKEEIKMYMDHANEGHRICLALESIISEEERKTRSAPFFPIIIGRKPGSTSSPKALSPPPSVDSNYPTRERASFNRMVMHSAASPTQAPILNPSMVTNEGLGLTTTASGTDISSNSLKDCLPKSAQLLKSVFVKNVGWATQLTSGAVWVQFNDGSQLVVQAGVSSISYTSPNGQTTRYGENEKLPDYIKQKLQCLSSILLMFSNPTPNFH
B2: Serine/threonine-protein kinase PLK4 (Homo sapiens), O00444 (parent)
chain: B1 partner

Variants of: B1
Settings: with plk4_human PLK4, O00444
E21K was tested, and the “effect of a mutation on the interaction” value was “decreasing interaction strength”. V8A was tested, and the “effect of a mutation on the interaction” value was “decreasing interaction strength”.

Variants of: B2
Settings: with CEP152, O94986-3
With K711A the “effect of a mutation on the interaction” value was “decreasing interaction strength”. K685A was tested, and the “effect of a mutation on the interaction” value was “disrupting interaction strength”.
